Source: IntAct's records for PubMed 22309289

B1: Protein X (Hepatitis B virus genotype D subtype ayw (isolate France/Tiollais/1979)), P03165 (parent)
chain: MAARLCCQLDPARDVLCLRPVGAESRGRPFSGSLGTLSSPSPSAVPTDHGAHLSLRGLPVCAFSSAGPCALRFTSARRMETTVNAHQILPKVLHKRTLGLSAMSTTDLEAYFKDCLFKDWEELGEEIRLKVFVLGGCRHKLVCAPAPCNFFTSA

Variants of: B1
Conditions: with akt1_human AKT1, P31749
Chain of akt1_human AKT1, P31749 (P31749 whole entry): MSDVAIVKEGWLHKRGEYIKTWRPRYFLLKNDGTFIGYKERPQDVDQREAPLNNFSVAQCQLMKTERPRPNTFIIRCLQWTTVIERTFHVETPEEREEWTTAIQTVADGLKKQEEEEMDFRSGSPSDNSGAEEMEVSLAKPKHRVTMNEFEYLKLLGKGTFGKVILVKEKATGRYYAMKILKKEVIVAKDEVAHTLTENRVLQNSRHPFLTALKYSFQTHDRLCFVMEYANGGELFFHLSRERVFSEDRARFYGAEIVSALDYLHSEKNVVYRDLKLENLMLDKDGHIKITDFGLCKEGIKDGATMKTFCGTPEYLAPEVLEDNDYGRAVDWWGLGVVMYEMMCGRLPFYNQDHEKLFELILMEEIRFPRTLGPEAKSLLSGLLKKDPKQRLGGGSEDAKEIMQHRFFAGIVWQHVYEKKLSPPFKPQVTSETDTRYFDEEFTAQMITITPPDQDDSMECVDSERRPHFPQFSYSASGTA

Row | Variant | effect of a mutation on the interaction
1 | S31A | disrupting interaction
